Laboratory results published in publication PMC7515719, “The crystal structure of human XPG, the xeroderma pigmentosum group G endonuclease, provides insight into nucleotide excision DNA repair”.
Changes are numbered by the printed parent chain.

T1: XPGn1 D812A (Homo sapiens, UniProt P28715 1-112+=GT+750-990, D812A;internal_change)
T1 sequence: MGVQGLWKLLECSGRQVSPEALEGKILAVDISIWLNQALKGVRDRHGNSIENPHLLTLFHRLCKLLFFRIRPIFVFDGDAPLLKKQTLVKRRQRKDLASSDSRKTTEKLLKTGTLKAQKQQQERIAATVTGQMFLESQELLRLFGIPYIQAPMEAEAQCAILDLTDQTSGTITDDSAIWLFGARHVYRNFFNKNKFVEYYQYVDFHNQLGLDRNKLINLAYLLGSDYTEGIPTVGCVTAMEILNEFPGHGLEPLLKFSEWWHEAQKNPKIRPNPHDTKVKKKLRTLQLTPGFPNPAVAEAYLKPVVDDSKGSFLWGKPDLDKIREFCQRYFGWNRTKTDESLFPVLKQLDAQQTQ

T2: XPGn3 K828E (Homo sapiens, UniProt P28715 2-112+=GT+750-990, K828E;internal_change)
T2 sequence: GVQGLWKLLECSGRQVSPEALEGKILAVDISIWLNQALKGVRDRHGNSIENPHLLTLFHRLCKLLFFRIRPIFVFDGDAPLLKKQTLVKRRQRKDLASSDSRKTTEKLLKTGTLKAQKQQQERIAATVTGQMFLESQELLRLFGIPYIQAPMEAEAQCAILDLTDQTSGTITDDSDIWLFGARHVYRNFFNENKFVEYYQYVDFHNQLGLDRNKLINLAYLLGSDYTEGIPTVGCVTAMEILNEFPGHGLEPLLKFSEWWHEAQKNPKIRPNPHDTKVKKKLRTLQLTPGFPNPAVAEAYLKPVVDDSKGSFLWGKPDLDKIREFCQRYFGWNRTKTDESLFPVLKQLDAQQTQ

T3: XPGn3 K972E (Homo sapiens, UniProt P28715 2-112+=GT+750-990, K972E;internal_change)
T3 sequence: T2 sequence with E192K, K336E

T4: XPGn3 D812A (Homo sapiens, UniProt P28715 2-112+=GT+750-990, D812A;internal_change)
T4 sequence: T2 sequence with D176A, E192K

T5: XPGn3 R823A (Homo sapiens, UniProt P28715 2-112+=GT+750-990, R823A;internal_change)
T5 sequence: T2 sequence with R187A, E192K

T6: XPGn3 K913A (Homo sapiens, UniProt P28715 2-112+=GT+750-990, K913A;internal_change)
T6 sequence: T2 sequence with E192K, K277A

T7: XPGn3 K916A (Homo sapiens, UniProt P28715 2-112+=GT+750-990, K916A;internal_change)
T7 sequence: T2 sequence with E192K, K280A

T8: XPGn3 K917E (Homo sapiens, UniProt P28715 2-112+=GT+750-990, K917E;internal_change)
T8 sequence: T2 sequence with E192K, K281E

B1: DNA-1 splayed-arm (dsDNA)
DNA 1: TTGCAGAGTTC
DNA 2: GAACTCTGCAG
B2: DNA-2 splayed-arm (dsDNA)
DNA 1: TACTTGCAGAGTTCGC
DNA 2: GCGAACTCTGCAGAGCA

Columns and labels:
XPGn1 D812A = target: T1, XPGn1 D812A; assay: crystal structure; C1, space group I422, one complex per ASU; EMSA: 2.5 uM DNA, 1-8 uM protein, buffer H (composition not in material) + 15% glycerol, 25 C, 30 min, 7% native PAGE; crystals: complex in 20 mM Tris pH 7.5, 100 mM KCl, grown in 5% PEG 3350, 50 mM sodium citrate pH 4.0, 22 C; settings: protein: recombinant; tags: N-terminal His-3C cleaved, leaves Gly-Pro-His before Met1; fork: 10 bp duplex, 1 nt 5' arm (strand 1), 1 nt 3' arm (strand 2)
XPGn3 K828E = target: T2, XPGn3 K828E; assay: EMSA; only cleavage mildly lowered; EMSA: 2.5 uM DNA, 1-8 uM protein, buffer H (composition not in material) + 15% glycerol, 25 C, 30 min, 7% native PAGE; crystals: complex in 20 mM Tris pH 7.5, 100 mM KCl, grown in 5% PEG 3350, 50 mM sodium citrate pH 4.0, 22 C; settings: protein: recombinant; tags: N-terminal His-TEV cleaved; fork: 12 bp duplex, 4 nt 5' arm (strand 1), 5 nt 3' arm (strand 2)
XPGn3 K972E = target: T3, XPGn3 K972E; assay: as above; settings: protein: recombinant; tags: N-terminal His-TEV cleaved; fork: 12 bp duplex, 4 nt 5' arm (strand 1), 5 nt 3' arm (strand 2)
XPGn3 D812A = target: T4, XPGn3 D812A; assay: EMSA; no influence on binding; EMSA: 2.5 uM DNA, 1-8 uM protein, buffer H (composition not in material) + 15% glycerol, 25 C, 30 min, 7% native PAGE; crystals: complex in 20 mM Tris pH 7.5, 100 mM KCl, grown in 5% PEG 3350, 50 mM sodium citrate pH 4.0, 22 C; settings: protein: recombinant; tags: N-terminal His-TEV cleaved; fork: 12 bp duplex, 4 nt 5' arm (strand 1), 5 nt 3' arm (strand 2)
XPGn3 R823A = target: T5, XPGn3 R823A; assay: EMSA; value from '~10% reduction'; EMSA: 2.5 uM DNA, 1-8 uM protein, buffer H (composition not in material) + 15% glycerol, 25 C, 30 min, 7% native PAGE; crystals: complex in 20 mM Tris pH 7.5, 100 mM KCl, grown in 5% PEG 3350, 50 mM sodium citrate pH 4.0, 22 C; settings: protein: recombinant; tags: N-terminal His-TEV cleaved; fork: 12 bp duplex, 4 nt 5' arm (strand 1), 5 nt 3' arm (strand 2)
XPGn3 K913A = target: T6, XPGn3 K913A; assay: EMSA; minimal or null effect; EMSA: 2.5 uM DNA, 1-8 uM protein, buffer H (composition not in material) + 15% glycerol, 25 C, 30 min, 7% native PAGE; crystals: complex in 20 mM Tris pH 7.5, 100 mM KCl, grown in 5% PEG 3350, 50 mM sodium citrate pH 4.0, 22 C; settings: protein: recombinant; tags: N-terminal His-TEV cleaved; fork: 12 bp duplex, 4 nt 5' arm (strand 1), 5 nt 3' arm (strand 2)
XPGn3 K916A = target: T7, XPGn3 K916A; assay: as above; settings: protein: recombinant; tags: N-terminal His-TEV cleaved; fork: 12 bp duplex, 4 nt 5' arm (strand 1), 5 nt 3' arm (strand 2)
XPGn3 K917E = target: T8, XPGn3 K917E; assay: as above; settings: protein: recombinant; tags: N-terminal His-TEV cleaved; fork: 12 bp duplex, 4 nt 5' arm (strand 1), 5 nt 3' arm (strand 2)

| Binder | binding result (XPGn1 D812A) | binding result (XPGn3 K828E) | binding result (XPGn3 K972E) | binding result (XPGn3 D812A) | binding signal (XPGn3 R823A) | binding result (XPGn3 K913A) | binding result (XPGn3 K916A) | binding result (XPGn3 K917E) |
| --- | --- | --- | --- | --- | --- | --- | --- | --- |
| B1 | binds | – | – | – | – | – | – | – |
| B2 | – | binds | binds | binds | ~90 % of wild-type binding | binds | binds | binds |
